Experimental data reported in PMC10527986.

Legend:
[1] = biological target: hMPV pre-fusion F protein (A2 strain; A185P, A113C/A339C, RRRR furin site) (human metapneumovirus, A2 strain) (UniProt Q6WB98); assay: SEC
[2] = biological target: hMPV pre-fusion F protein (A2 strain; A185P, A113C/A339C, RRRR furin site) (human metapneumovirus, A2 strain) (UniProt Q6WB98); assay: cryo-EM structure

Which results are given for “hMPV pre-fusion F protein (A2 strain; A185P, A113C/A339C, RRRR furin site) (from UniProt Q6WB98 19-539) (natural protein)”?
stoichiometry N [1]: 3; stoichiometry N [2]: 2
